Reference: US20110162109A1 (BASF PLANT SCIENCE, published 2011)

Assays:
[1] = target: T1, HUB1 (Histone Monoubiquitination 1), At2g44950, Arabidopsis thaliana (Arabidopsis thaliana, UniProt Q8RXD6 1-878); experiment: TAP with N-terminally TAP-tagged HUB1, mass spectrometry; column To be confirmed (interacted only once)
T1 construct: Full length HUB1; In the TAP experiments N-terminally fused to the TAP tag or the GS-TAP tag; in yeast two-hybrid fused to AD (pDEST22) or BD (pDEST32); all these constructs are written under this one entry; also called HUB1fl; full length HUB1
T1 sequence: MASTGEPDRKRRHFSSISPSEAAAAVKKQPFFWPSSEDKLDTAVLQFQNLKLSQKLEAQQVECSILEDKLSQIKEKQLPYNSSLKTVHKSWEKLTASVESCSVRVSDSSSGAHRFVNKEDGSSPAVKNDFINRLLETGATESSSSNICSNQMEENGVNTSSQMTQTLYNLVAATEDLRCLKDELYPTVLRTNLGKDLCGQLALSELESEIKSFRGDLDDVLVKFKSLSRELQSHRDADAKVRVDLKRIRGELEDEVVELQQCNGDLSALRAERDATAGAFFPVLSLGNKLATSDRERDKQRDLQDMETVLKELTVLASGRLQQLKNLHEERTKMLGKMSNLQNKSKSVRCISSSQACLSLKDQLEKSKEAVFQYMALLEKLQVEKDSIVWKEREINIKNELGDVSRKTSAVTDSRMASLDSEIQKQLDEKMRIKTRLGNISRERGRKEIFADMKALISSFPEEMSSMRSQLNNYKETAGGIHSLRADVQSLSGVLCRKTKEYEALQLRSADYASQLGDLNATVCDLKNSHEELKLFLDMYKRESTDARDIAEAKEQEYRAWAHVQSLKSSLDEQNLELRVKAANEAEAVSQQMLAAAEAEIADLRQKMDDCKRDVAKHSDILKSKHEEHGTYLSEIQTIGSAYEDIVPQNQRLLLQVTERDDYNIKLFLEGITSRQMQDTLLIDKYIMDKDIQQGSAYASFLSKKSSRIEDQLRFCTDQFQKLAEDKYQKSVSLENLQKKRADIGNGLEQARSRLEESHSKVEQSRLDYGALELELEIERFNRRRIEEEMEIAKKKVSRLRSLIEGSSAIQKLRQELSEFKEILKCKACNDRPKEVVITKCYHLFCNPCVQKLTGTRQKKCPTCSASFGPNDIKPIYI
Protocol: (§1) Because the RING proteins have their functionally important domain at the C-terminus, an N-terminal fusion was prepared instead of the traditional C-terminal fusion by cloning both full length and the point mutant form of HUB1 (HUB1pm, HUB1fl). The Arabidopsis cell cultures were transformed with the two constructs and cultivated on 10 litre scale, harvested and purified by TAP (Van Leene et al., Mol. Cell. Proteomics 6, 1226-38, 2007). The protein extracts were separated on 1-D SDS-PAGE gels and isolated from gel for protein identification by mass spectrometry (Laukens et al., Proteomics. 4, 720-7, 2004, Van Leene et al., 2007). Two cut offs were used resulting in “confirmed” and “to be confirmed” candidate interactor lists (Table I).
(§2) In the data set of confirmed interactors TAP HUB1 and HUB2 were present, […] the dimer formation between the homologues. In addition, the acetyltransferase GCN5, RNA binding proteins and a KH domain protein were identified as HUB1 interacting proteins. Most of these proteins are known to be localized in nucleus or nucleoli. GFP constructs of HUB1 have also been localized to nucleus (Liu et al., 2007). When HUB1pm was used for TAP purification no HUB2 could be identified as an interacting protein.

[2] = target: UBC2, At2g02760 (Arabidopsis thaliana) (UniProt P42745); experiment: GS-TAP purification + MALDI-TOF-TOF MS, bait UBC2 (second block, as the rows stand); expectance is the MS identification score
Sequence of UBC2, At2g02760 (Arabidopsis thaliana) (P42745 whole entry): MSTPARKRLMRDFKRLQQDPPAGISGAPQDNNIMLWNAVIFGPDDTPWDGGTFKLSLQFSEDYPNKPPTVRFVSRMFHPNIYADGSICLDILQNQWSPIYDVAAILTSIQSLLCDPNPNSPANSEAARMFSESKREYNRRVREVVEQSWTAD

LUG/RON2, At4G32551 = target: T2, LUG/RON2, At4G32551 (Arabidopsis thaliana, UniProt Q9FUY2 1-931); experiment: yeast two-hybrid
T2 construct: Endogenous prey in TAP; fusion protein in yeast two-hybrid
T2 sequence (looked up): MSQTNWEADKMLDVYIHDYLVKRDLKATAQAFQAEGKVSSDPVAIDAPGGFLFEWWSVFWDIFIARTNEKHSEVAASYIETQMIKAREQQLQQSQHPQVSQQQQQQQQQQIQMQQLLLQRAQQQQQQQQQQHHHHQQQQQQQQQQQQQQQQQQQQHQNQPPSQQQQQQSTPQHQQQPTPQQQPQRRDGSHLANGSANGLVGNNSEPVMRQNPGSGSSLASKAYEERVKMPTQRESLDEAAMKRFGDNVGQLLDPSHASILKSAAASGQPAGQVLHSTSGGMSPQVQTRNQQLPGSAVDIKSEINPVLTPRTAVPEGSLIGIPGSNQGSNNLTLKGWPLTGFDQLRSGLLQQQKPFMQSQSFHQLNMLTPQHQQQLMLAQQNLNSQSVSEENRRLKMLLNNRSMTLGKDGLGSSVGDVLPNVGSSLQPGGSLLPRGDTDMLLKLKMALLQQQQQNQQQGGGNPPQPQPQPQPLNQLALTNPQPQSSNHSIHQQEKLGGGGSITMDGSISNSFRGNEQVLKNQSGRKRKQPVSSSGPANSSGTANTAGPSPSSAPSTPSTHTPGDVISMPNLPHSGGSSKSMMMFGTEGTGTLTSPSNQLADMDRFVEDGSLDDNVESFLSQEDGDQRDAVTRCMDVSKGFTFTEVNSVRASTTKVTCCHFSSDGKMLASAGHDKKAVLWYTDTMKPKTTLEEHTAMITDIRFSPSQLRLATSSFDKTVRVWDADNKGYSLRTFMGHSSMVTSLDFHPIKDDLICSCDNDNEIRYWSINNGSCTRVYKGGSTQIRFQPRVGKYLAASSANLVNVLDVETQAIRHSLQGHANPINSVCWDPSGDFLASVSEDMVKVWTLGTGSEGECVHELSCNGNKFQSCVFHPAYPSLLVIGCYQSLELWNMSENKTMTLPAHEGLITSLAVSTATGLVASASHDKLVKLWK

[3] = target: T3, HUB2, At1g55250, Arabidopsis thaliana (Arabidopsis thaliana, UniProt Q9C895 1-900); experiment: tandem affinity purification with NTAP-tagged HUB1pm
T3 construct: As prey the endogenous protein of Arabidopsis cell culture; as bait N-terminal GS-TAP fusion; in yeast two-hybrid an AD fusion; also called AAG51572.1
T3 sequence: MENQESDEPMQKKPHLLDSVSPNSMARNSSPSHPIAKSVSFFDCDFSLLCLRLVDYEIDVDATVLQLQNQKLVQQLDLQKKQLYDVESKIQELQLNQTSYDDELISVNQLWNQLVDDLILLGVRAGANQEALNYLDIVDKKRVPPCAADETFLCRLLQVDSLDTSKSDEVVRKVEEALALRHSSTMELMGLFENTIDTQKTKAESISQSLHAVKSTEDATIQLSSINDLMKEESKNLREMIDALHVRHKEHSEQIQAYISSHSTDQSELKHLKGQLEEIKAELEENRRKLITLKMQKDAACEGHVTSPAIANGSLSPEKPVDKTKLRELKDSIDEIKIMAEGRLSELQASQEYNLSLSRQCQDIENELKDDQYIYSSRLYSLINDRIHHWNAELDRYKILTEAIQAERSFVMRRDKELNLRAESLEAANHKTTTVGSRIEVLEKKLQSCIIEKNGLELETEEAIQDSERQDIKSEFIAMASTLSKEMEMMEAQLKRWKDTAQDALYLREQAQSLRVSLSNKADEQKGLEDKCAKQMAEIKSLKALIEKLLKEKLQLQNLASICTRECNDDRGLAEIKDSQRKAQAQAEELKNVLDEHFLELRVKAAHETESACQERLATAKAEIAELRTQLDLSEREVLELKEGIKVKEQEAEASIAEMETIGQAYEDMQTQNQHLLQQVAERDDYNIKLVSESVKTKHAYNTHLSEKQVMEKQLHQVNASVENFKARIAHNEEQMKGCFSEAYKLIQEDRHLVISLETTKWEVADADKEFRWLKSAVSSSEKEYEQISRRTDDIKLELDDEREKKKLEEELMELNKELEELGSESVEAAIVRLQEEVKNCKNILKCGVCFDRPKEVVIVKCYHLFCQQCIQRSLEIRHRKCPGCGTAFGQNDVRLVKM
Protocol: as §1, §2

Row | Binder | binding result [1] | Expectance [2] | binding result (LUG/RON2, At4G32551) | binding result [3] | monoubiquitination of histone H2B in the in vitro ubiquitination assay (protein gel blot) (histone H2B)
1 | SEUSS, At1g43850 (other, Arabidopsis thaliana, UniProt Q8W234 1-877, looked up, As prey endogenous; as bait N-terminal GS-TAP fusion; in yeast two-hybrid an AD fusion) MVPSEPPNPVGGGENVPPSILGGQGGAPLPSQPAFPSLVSPRTQFGNNMSMSMLGNAPNISSLLNNQSFVNGIPGSMISMDTSGAESDPMSNVGFSGLSSFNASSMVSPRSSGQVQGQQFSNVSANQLLAEQQRNKKMETQSFQHGQQQSMQQQFSTVRGGGLAGVGPVKMEPGQVSNDQQHGQVQQQQQKMLRNLGSVKLEPQQIQAMRNLAQVKMEPQHSEQSLFLQQQQRQQQQQQQQQFLQMPGQSPQAQMNIFQQQRLMQLQQQQLLKSMPQQRPQLPQQFQQQNLPLRPPLKPVYEPGMGAQRLTQYMYRQQHRPEDNNIEFWRKFVAEYFAPNAKKRWCVSMYGSGRQTTGVFPQDVWHCEICNRKPGRGFEATAEVLPRLFKIKYESGTLEELLYVDMPRESQNSSGQIVLEYAKATQESVFEHLRVVRDGQLRIVFSPDLKIFSWEFCARRHEELIPRRLLIPQVSQLGSAAQKYQQAAQNATTDSALPELQNNCNMFVASARQLAKALEVPLVNDLGYTKRYVRCLQISEVVNSMKDLIDYSRETRTGPIESLAKFPRRTGPSSALPGPSPQQASDQLRQQQQQQQQQQQQQQQQQQQQQQQQTVSQNTNSDQSSRQVALMQGNPSNGVNYAFNAASASTSTSSIAGLIHQNSMKGRHQNAAYNPPNSPYGGNSVQMQSPSSSGTMVPSSSQQQHNLPTFQSPTSSSNNNNPSQNGIPSVNHMGSTNSPAMQQAGEVDGNESSSVQKILNEILMNNQAHNNSSGGSMVGHGSFGNDGKGQANVNSSGVLLMNGQVNNNNNTNIGGAGGFGGGIGQSMAANGINNINGNNSLMNGRVGMMVRDPNGQQDLGNQLLGAVNGFNNFDWNA | binds | 1e-24 | binds |  | 
2 | HUB1pm (HUB1 point mutant, Cys residues nr 1 and 2 of the C3HC4 RING domain changed into Ser) (enzyme, In TAP N-terminally TAP-tagged; also called HUBpm; At2g44950 Arabidopsis thaliana point mutation) MASTGEPDRKRRHFSSISPSEAAAAVKKQPFFWPSSEDKLDTAVLQFQNLKLSQKLEAQQVECSILEDKLSQIKEKQLPYNSSLKTVHKSWEKLTASVESCSVRVSDSSSGAHRFVNKEDGSSPAVKNDFINRLLETGATESSSSNICSNQMEENGVNTSSQMTQTLYNLVAATEDLRCLKDELYPTVLRTNLGKDLCGQLALSELESEIKSFRGDLDDVLVKFKSLSRELQSHRDADAKVRVDLKRIRGELEDEVVELQQCNGDLSALRAERDATAGAFFPVLSLGNKLATSDRERDKQRDLQDMETVLKELTVLASGRLQQLKNLHEERTKMLGKMSNLQNKSKSVRCISSSQACLSLKDQLEKSKEAVFQYMALLEKLQVEKDSIVWKEREINIKNELGDVSRKTSAVTDSRMASLDSEIQKQLDEKMRIKTRLGNISRERGRKEIFADMKALISSFPEEMSSMRSQLNNYKETAGGIHSLRADVQSLSGVLCRKTKEYEALQLRSADYASQLGDLNATVCDLKNSHEELKLFLDMYKRESTDARDIAEAKEQEYRAWAHVQSLKSSLDEQNLELRVKAANEAEAVSQQMLAAAEAEIADLRQKMDDCKRDVAKHSDILKSKHEEHGTYLSEIQTIGSAYEDIVPQNQRLLLQVTERDDYNIKLFLEGITSRQMQDTLLIDKYIMDKDIQQGSAYASFLSKKSSRIEDQLRFCTDQFQKLAEDKYQKSVSLENLQKKRADIGNGLEQARSRLEESHSKVEQSRLDYGALELELEIERFNRRRIEEEMEIAKKKVSRLRSLIEGSSAIQKLRQELSEFKEILKSKASNDRPKEVVITKCYHLFCNPCVQKLTGTRQKKCPTCSASFGPNDIKPIYI |  |  |  | no binding | shift of H2B by 10 kDa
